In the assay the target is recombinant Hbl B (hemolysin BL component B) with N-terminal strep tag (Bacillus cereus) (UniProt P80172).

Here are results for 1 substance from publication PMC7694065.

In the case of “recombinant Hbl B (hemolysin BL component B) with N-terminal strep tag (from UniProt P80172 32-375) (natural protein)”, the binding of rHbl B to Vero cells (flow cytometry, mAb 1G8-Alexa 488) after 10 min heat treatment over a temperature gradient; minimum 7% FL1-positive cells at 60 °C, increase from 70 °C upwards (% FL1-positive cells) was found to be 93.
